This assay addresses TRIM7 PRY-SPRY domain (338-511 aa) (human) (UniProt Q9C029). The assay is described as follows: ITC. A general note: Isothermal titration calorimetry measures the heat released or taken up as one component is titrated into another.

What is called Kd is the concentration at which binding is half-saturated. Higher therefore signals lower affinity. Substance C-terminal peptide fragment of RACO-1 displayed a Kd of 10 µM.
In the case of “CVB3 2C (117-329 aa) (domain or fragment)” it was 6 µM; in that of “C-terminal peptide fragment of glycogenin-1 (GN1)”, 8 µM; in that of CVB3 2C-derived peptide (319-329 aa), 3 µM.

For the origin of these results see paper doi:10.1101/2022.03.24.485560.
